Measured values taken from the supplement of paper PMC10126150.
± gives the standard deviation of the averaged measurements.

These sequences were tested on ATP (assay: switch fluorescence ratio, 500 uM ATP over buffer (Cy3 cluster intensity, sum of 5 cycles each) (fold (ratio)); higher = stronger signal-on switching upon ATP binding; sequences stand for … in TCGTCGGCAGCGTCAGATGTGTATAAGAGACAGTTTTTTTTTTTTTTTTTTTTTTTTT…TC). Conditions: aptamer strand: ATP DNA aptamer (quencher-CACCTGGGGGAGTATTGCGGAGGAAGG + anchor), 100 nM annealed; ATP concentration: 500 uM.
Method in brief: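 Cy3-labelled switching-strand clusters on a modified Illumina MiSeq flow-cell were annealed to 100 nM quencher-labelled ATP aptamer and imaged first in selection buffer, then after 15 min with 500 uM ATP at 22 °C. NaOH stripping and re-annealing separated each of five buffer/ATP cycles, and clusters outside 100-1000 RFU were excluded. The fluorescence ratio sums target-cycle Cy3 intensity over buffer-cycle Cy3 intensity per cluster and averages it per switch-domain sequence.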
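Also: ATP exposure 15 min at 22 °C before imaging.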

Sequence | switch fluorescence ratio
CGTAAAAAAT | 0.986 ± 0.068
CGTAACATGG | 1.022 ± 0.0099
CGTAACCCGT | 0.98 ± 0.033
CGTAACCTTA | 1.05 ± 0.15
CGTAACTAGG | 1.02 ± 0.03
CGTAACTGTG | 1.07 ± 0.043
CGTAAGCGTA | 1.04 ± 0.032
CGTAAGGGGG | 1.02 ± 0.035
CGTAATTATG | 1.01 ± 0.03
CGTAATTGCC | 1.002 ± 0.008
CGTAATTTGA | 1.02 ± 0.047
CGTACAATGG | 1.28 ± 0.088
CGTACAGGGG | 1.207 ± 0.004
CGTACGGGTG | 1 ± 0.014
CGTACGGTAA | 1.09 ± 0.042
CGTACGTGCA | 1.02 ± 0.032
CGTACTGTAA | 1.18 ± 0.03
CGTAGAGCGA | 1.03 ± 0.015
CGTAGCGGTA | 1.53 ± 0.098
CGTAGCTTAG | 1.25 ± 0.13
CGTAGGAAGA | 1.02 ± 0.048
CGTAGGAATT | 1.07 ± 0.015

Sequence | switch fluorescence ratio
CGTAGGAGGG | 0.997 ± 0.04
CGTAGGGGTC | 0.959 ± 0.042
CGTAGGGTGT | 1 ± 0.022
CGTAGGGTTT | 0.976 ± 0.055
CGTAGTGAGG | 0.994 ± 0.03
CGTAGTGGGG | 0.993 ± 0.044
CGTAGTTTGT | 1.03 ± 0.076
CGTATAATTT | 0.97555 ± 0.00021
CGTATAGCGG | 1.02 ± 0.076
CGTATAGTTT | 0.9865 ± 0.0096
CGTATCAAAC | 1.23 ± 0.049
CGTATCGGGG | 0.993 ± 0.054
CGTATCGTGG | 1.03 ± 0.031
CGTATCTAGG | 0.98 ± 0.021
CGTATCTATC | 1.007 ± 0.0065
CGTATGAATA | 0.984 ± 0.011
CGTATGGGGG | 1.07 ± 0.08
CGTATGGTTC | 0.996 ± 0.031
CGTATTACAC | 1.045 ± 0.0033
CGTATTGGGC | 0.9577 ± 0.0065
CGTCAAACAT | 1.081 ± 0.0084
CGTCAAATAT | 1.13 ± 0.041

Sequence | switch fluorescence ratio
CGTCAACAGG | 1.28 ± 0.062
CGTCACAGTG | 1.04 ± 0.019
CGTCAGCGAA | 1.18 ± 0.039
CGTCAGTATG | 1 ± 0.033
CGTCATCGCA | 1.2 ± 0.022
CGTCATGATG | 1 ± 0.029
CGTCATTAAG | 0.9994 ± 0.0054
CGTCCCTAGC | 1.61 ± 0.06
CGTCCGAAGT | 2.03 ± 0.18
CGTCCGGTG | 1.78 ± 0.65
CGTCGAATAT | 1.016 ± 0.0016
CGTCGGAATG | 1.091 ± 0.0045
CGTCGGGGAA | 1.02 ± 0.027
CGTCGGGGTT | 0.973 ± 0.032
CGTCGGTTTG | 0.993 ± 0.019
CGTCGTGGAG | 1.01 ± 0.036
CGTCTAAGGT | 0.98 ± 0.044
CGTCTAGACT | 1.018 ± 0.0036
CGTCTATTGT | 0.98 ± 0.046
CGTCTGGTGG | 0.991 ± 0.05
CGTCTTACGT | 1.03 ± 0.051
CGTCTTGTGG | 1 ± 0.022

Sequence | switch fluorescence ratio
CGTGACAAGA | 0.986 ± 0.056
CGTGACAGGG | 1.04 ± 0.058
CGTGACCGGG | 0.996 ± 0.016
CGTGACTAAA | 0.9893 ± 0.0079
CGTGAGAAAG | 1 ± 0.018
CGTGAGATGC | 1.01 ± 0.038
CGTGAGGGAG | 0.994 ± 0.029
CGTGAGGGTA | 1.02 ± 0.028
CGTGAGGGTG | 1.01 ± 0.079
CGTGATATAG | 1.02 ± 0.026
CGTGCAAAAC | 1.82 ± 0.88
CGTGCAAAGA | 1.77 ± 1.1
CGTGCGAAGG | 1.03 ± 0.049
CGTGCGGCTG | 1.028 ± 0.0066
CGTGCTGCAA | 4.91 ± 1.7
CGTGCTGGAA | 0.975 ± 0.045
CGTGGAAGGA | 0.997 ± 0.038
CGTGGCCGCG | 0.959 ± 0.012
CGTGGCGGTA | 1.04 ± 0.031
